To fix the notation:
B1: DNATetR-0 (dsDNA)
DNA 1: CCTCCGATTTTCAGATTGACACTCTATCATTGATAGGGATATATTCCAACTCTATCAAT
DNA 2: ATTGATAGAGTTGGAATATATCCCTATCAATGATAGAGTGTCAATCTGAAAATCGGAGG
B2: DNATetR-9 (dsDNA)
DNA 1: B1 DNA 1
DNA 2: ATTGATAGAGTTGGAATATATCCCT
DNA 3: ATCAATGATAGAGTGTCAATCTGAAAATCGGAGG
modifications: nick in bottom strand
B3: DNATetR-5 (dsDNA)
DNA 1: B1 DNA 1
DNA 2: ATTGATAGAGTTGGAATATATCCCTATCAATG
DNA 3: ATAGAGTGTCAATCTGAAAATCGGAGG
modifications: nick in bottom strand
B4: DNATetR-12 (dsDNA)
DNA 1: B1 DNA 1
DNA 2: ATTGATAGAGTTGGAATAT
DNA 3: ATCCCTATCAATGATAGAGTGTCAATCTGAAAATCGGAGG
modifications: nick in bottom strand
B5: DNATetR-2 (dsDNA)
DNA 1: B1 DNA 1
DNA 2: ATTGATAGAGTTGGAATATATCCCTATCAATGATAGAG
DNA 3: TGTCAATCTGAAAATCGGAGG
modifications: nick in bottom strand
B6: DNATetR-4 (dsDNA)
DNA 1: B1 DNA 1
DNA 2: ATTGATAGAGTTGGAATATATCCCTATCAATGAT
DNA 3: AGAGTGTCAATCTGAAAATCGGAGG
modifications: nick in bottom strand
B7: DNATetR-10 (dsDNA)
DNA 1: B1 DNA 1
DNA 2: ATTGATAGAGTTGGAATATATCC
DNA 3: CTATCAATGATAGAGTGTCAATCTGAAAATCGGAGG
modifications: nick in bottom strand
B8: DNATetR-1 (dsDNA)
DNA 1: B1 DNA 1
DNA 2: ATTGATAGAGTTGGAATATATCCCTATCAATGATAGAGTG
DNA 3: TCAATCTGAAAATCGGAGG
modifications: nick in bottom strand
B9: DNATetR-7 (dsDNA)
DNA 1: B1 DNA 1
DNA 2: ATTGATAGAGTTGGAATATATCCCTATCA
DNA 3: ATGATAGAGTGTCAATCTGAAAATCGGAGG
modifications: nick in bottom strand
B10: DNATetR-8 (dsDNA)
DNA 1: B1 DNA 1
DNA 2: ATTGATAGAGTTGGAATATATCCCTAT
DNA 3: CAATGATAGAGTGTCAATCTGAAAATCGGAGG
modifications: nick in bottom strand
B11: DNATetR-6 (dsDNA)
DNA 1: B1 DNA 1
DNA 2: ATTGATAGAGTTGGAATATATCCCTATCAA
DNA 3: TGATAGAGTGTCAATCTGAAAATCGGAGG
modifications: nick in bottom strand
B12: DNATetR-3 (dsDNA)
DNA 1: B1 DNA 1
DNA 2: ATTGATAGAGTTGGAATATATCCCTATCAATGATAG
DNA 3: AGTGTCAATCTGAAAATCGGAGG
modifications: nick in bottom strand
B13: DNATetR-11 (dsDNA)
DNA 1: B1 DNA 1
DNA 2: ATTGATAGAGTTGGAATATAT
DNA 3: CCCTATCAATGATAGAGTGTCAATCTGAAAATCGGAGG
modifications: nick in bottom strand
B14: DNAAvaR1-0 (dsDNA)
DNA 1: CGCAAGAGGGACTTGAAGACAAAACCGTCTAGTACGTATCTTTGACCTCCAGCTCTTCC
DNA 2: GGAAGAGCTGGAGGTCAAAGATACGTACTAGACGGTTTTGTCTTCAAGTCCCTCTTGCG
B15: DNAAvaR1-9 (dsDNA)
DNA 1: B14 DNA 1
DNA 2: GGAAGAGCTGGAGGTCAAAGATAC
DNA 3: GTACTAGACGGTTTTGTCTTCAAGTCCCTCTTGCG
modifications: nick in bottom strand
B16: DNAAvaR1-7 (dsDNA)
DNA 1: B14 DNA 1
DNA 2: GGAAGAGCTGGAGGTCAAAGATACGTAC
DNA 3: TAGACGGTTTTGTCTTCAAGTCCCTCTTGCG
modifications: nick in bottom strand
B17: DNAAvaR1-8 (dsDNA)
DNA 1: B14 DNA 1
DNA 2: GGAAGAGCTGGAGGTCAAAGATACGT
DNA 3: ACTAGACGGTTTTGTCTTCAAGTCCCTCTTGCG
modifications: nick in bottom strand
B18: DNAAvaR1-2 (dsDNA)
DNA 1: B14 DNA 1
DNA 2: GGAAGAGCTGGAGGTCAAAGATACGTACTAGACGGTTT
DNA 3: TGTCTTCAAGTCCCTCTTGCG
modifications: nick in bottom strand
B19: DNAAvaR1-3 (dsDNA)
DNA 1: B14 DNA 1
DNA 2: GGAAGAGCTGGAGGTCAAAGATACGTACTAGACGGT
DNA 3: TTTGTCTTCAAGTCCCTCTTGCG
modifications: nick in bottom strand
B20: DNAAvaR1-1 (dsDNA)
DNA 1: B14 DNA 1
DNA 2: GGAAGAGCTGGAGGTCAAAGATACGTACTAGACGGTTTTG
DNA 3: TCTTCAAGTCCCTCTTGCG
modifications: nick in bottom strand
B21: DNAAvaR1-6 (dsDNA)
DNA 1: B14 DNA 1
DNA 2: GGAAGAGCTGGAGGTCAAAGATACGTACTA
DNA 3: GACGGTTTTGTCTTCAAGTCCCTCTTGCG
modifications: nick in bottom strand
B22: DNAAvaR1-12 (dsDNA)
DNA 1: B14 DNA 1
DNA 2: GGAAGAGCTGGAGGTCAA
DNA 3: AGATACGTACTAGACGGTTTTGTCTTCAAGTCCCTCTTGCG
modifications: nick in bottom strand
B23: DNAAvaR1-5 (dsDNA)
DNA 1: B14 DNA 1
DNA 2: GGAAGAGCTGGAGGTCAAAGATACGTACTAGA
DNA 3: CGGTTTTGTCTTCAAGTCCCTCTTGCG
modifications: nick in bottom strand
B24: DNAAvaR1-4 (dsDNA)
DNA 1: B14 DNA 1
DNA 2: GGAAGAGCTGGAGGTCAAAGATACGTACTAGACG
DNA 3: GTTTTGTCTTCAAGTCCCTCTTGCG
modifications: nick in bottom strand
B25: DNAAvaR1-11 (dsDNA)
DNA 1: B14 DNA 1
DNA 2: GGAAGAGCTGGAGGTCAAAG
DNA 3: ATACGTACTAGACGGTTTTGTCTTCAAGTCCCTCTTGCG
modifications: nick in bottom strand
B26: DNAAvaR1-10 (dsDNA)
DNA 1: B14 DNA 1
DNA 2: GGAAGAGCTGGAGGTCAAAGAT
DNA 3: ACGTACTAGACGGTTTTGTCTTCAAGTCCCTCTTGCG
modifications: nick in bottom strand

Sequence of TetR (P04483 whole entry): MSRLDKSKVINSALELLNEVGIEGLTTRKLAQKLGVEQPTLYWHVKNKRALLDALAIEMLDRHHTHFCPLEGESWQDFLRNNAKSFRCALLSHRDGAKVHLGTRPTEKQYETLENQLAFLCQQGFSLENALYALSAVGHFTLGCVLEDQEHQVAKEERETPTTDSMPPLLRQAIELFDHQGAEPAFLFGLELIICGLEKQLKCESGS
Sequence of HosA (Q7ABA6 whole entry, looked up): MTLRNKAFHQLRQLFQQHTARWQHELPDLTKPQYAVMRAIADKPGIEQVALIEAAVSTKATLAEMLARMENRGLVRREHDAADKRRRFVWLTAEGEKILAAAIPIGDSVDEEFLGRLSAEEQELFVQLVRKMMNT

The first series deals with T1, HucR (Deinococcus radiodurans, UniProt Q9RV71).
T1 sequence (Q9RV71 1-181): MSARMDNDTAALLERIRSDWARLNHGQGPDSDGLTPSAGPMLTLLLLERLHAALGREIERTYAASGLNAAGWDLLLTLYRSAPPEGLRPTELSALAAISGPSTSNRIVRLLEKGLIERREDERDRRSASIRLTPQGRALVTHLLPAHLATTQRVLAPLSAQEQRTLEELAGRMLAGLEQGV
Description: isothermal titration calorimetry. Type of series: binding.
Conditions: not given
(Isothermal titration calorimetry measures the heat released or taken up as one component is titrated into another.)
Molecule `O=c1[nH]c(=O)c2[nH]c(=O)[nH]c2[nH]1` [UA] showed an equilibrium dissociation constant (Kd) of 9350 ± 990 nM.

A further series concerns the target HosA (Escherichia coli, UniProt Q7ABA6). Description: isothermal titration calorimetry. Format: binding.
Conditions: not given
For `O=C(O)c1ccc(O)cc1` [4-HBA], binding was characterised by a dissociation constant (Kd) of 4740 ± 250 nM.

A further series has as its target TetR (Escherichia coli, UniProt P04483 1-207). Kind of series: BLI; BLI: HBS-EP (10 mM Hepes, 15 mM NaCl, 3 mM EDTA, 0.005% Tween 20, 0.1% BSA, pH 7.4), temperature not stated; EMSA: 20 mM Tris-HCl pH 7.5, 2 mM DTT, 5 mM MgCl2. The conditions noted are these: protein: recombinant; chain copies: 2; label: 5'-biotin on strand 1; blunt. Background: In BLI a coated tip is dipped into the sample, and binding shifts an interference pattern.
Take B1: the Kd was 1.08 ± 0.06 nM.

Still in this series, the particulars now being: protein: recombinant; chain copies: 2; label: 5'-biotin on strand 1; blunt, nicked 1:2 1:3.
In the case of B2, the dissociation constant Kd was determined as 0.67 ± 0.03 nM.

Consider B3, for which the Kd was found to be 1.91 ± 0.03 nM.

B4: the Kd worked out at 1.1 ± 0.05 nM.

For the molecule B5, the Kd came out at 1.78 ± 0.07 nM.

With B6, the Kd worked out at 1.89 ± 0.07 nM.

Consider B7, for which the Kd came out at 1.22 ± 0.03 nM.

With B8, the Kd is 1.3 ± 0.04 nM.

In the case of B9, the Kd is 1.85 ± 0.06 nM.

Regarding B10, the Kd amounted to 1.52 ± 0.044 nM.

In the case of B11, the Kd was determined as 2 ± 0.59 nM.

Take B12: the Kd is 1.72 ± 0.11 nM.

For the molecule B13, the Kd worked out at 1.58 ± 0.04 nM.

The target in the next series is T2, AvaR1 (Streptomyces avermitilis, UniProt Q82H41 1-234).
T2 sequence: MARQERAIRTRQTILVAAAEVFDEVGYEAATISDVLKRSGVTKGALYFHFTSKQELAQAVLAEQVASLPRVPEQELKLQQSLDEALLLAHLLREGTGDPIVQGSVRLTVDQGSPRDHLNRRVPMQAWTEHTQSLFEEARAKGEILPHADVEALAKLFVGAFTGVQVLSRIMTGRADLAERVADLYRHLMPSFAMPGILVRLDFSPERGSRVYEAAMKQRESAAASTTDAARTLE
The description is as above. The conditions noted are these: protein: recombinant; label: 5'-biotin on strand 1; blunt.
For the molecule B14, the Kd was found to be 11.7 ± 0.028 nM.

Staying with this series, now noted: protein: recombinant; label: 5'-biotin on strand 1; blunt, nicked 1:2 1:3.
On to B15, for which the dissociation constant Kd stood at 22.2 ± 0.245 nM.

In the case of B16, the Kd stood at 10.8 ± 0.03 nM.

As to B17, the Kd turned out to be 14.1 ± 0.025 nM.

Consider B18, for which the Kd came out at 15.1 ± 0.034 nM.

B19: the Kd was found to be 17 ± 0.052 nM.

On to B20, for which the Kd is 18.3 ± 0.052 nM.

In the case of B21, the Kd stood at 12.6 ± 0.021 nM.

In the case of B22, the dissociation constant Kd turned out to be 8.33 ± 0.015 nM.

Turning to B23, the Kd worked out at 14 ± 0.027 nM.

B24: the Kd turned out to be 16 ± 0.032 nM.

Consider B25, for which the dissociation constant (Kd) stood at 13 ± 0.027 nM.

Take B26: the Kd came out at 11 ± 0.026 nM.

By Kd is commonly meant the concentration at which binding is half-saturated.

Values taken from paper PMC6261655, “Harnessing a previously unidentified capability of bacterial allosteric transcription factors for sensing diverse small molecules in vitro” (Science Advances, 2018).
